Experimental data as given in a protein production outcome set (Wang et al. 2014).

assay: label from the status in PepcDB records

Sequence | protein production
MIRFIGNNRRNLITALILYLLTLVPIYVFLFSNGYLNFYGPNLPLFSGKEVEHLLAASIYNPEYGFSVNDGIYFLYLLIFTSLGIYNIIILYKIFLIITFSITFLLLYTMINKAINIFKISRYKSLSLIIGVLFFLLNPLYLEYVAFNFYNLIWGVIIFSYILIKLIDIVVNDKNVTKLDILKSGIALGFSGLMDPRLYIWGSYILILTFIIVIIIKPRLILKLIKYLSLTYISSLPIIAYIYYLFVYPSLITQASTINAITVPAYRPDTYSYIATWSENSLLFNVFAFINSEWTSIVYAPPSILFYPRTQWWFFPHFGNNSLILLPPGIITYIWLASLYIFFIVAALALFDRKRTLASSLLFIPMLLIISLSAGTNVPIKEFVYLLEIDPSKLPIVGGIFATTFAIPYYAEVMALPFASYLSILGTNYLLNRINKEILKKIAVSIIIVLAVFASWQYFNGTLYPSEVTGSFPGNSISLEGYYYPLNPPPQWVHVMNLLSTSRESVRNVKN | failed
MIRKFSLIMATYGRKDEVGCFLESLMNSNYPMDKVEVIIVDQNKEIDLEPIISKYKEKIKVVHIKSNERGLALNRNKGLEIATGDIIAFPDDDCEYLVDTLNIVNNYFENEHCDLLMGRIVERNGEDSLREWPKEKIEINKNNFYTKCSSVTMFLDSKKCFVKFNDQLGAGKYFGACEDADLIYKNCKKGLKIIYNPELQIYHPHYDSNSNMDDKKIYSYGLGFGAMVKSNFDFSMLILFIKAEGYHFLKSLIYLITFKTTKSKRSWLAFKSRIKGFFEYKN | failed
MIRKKQTEKPSEWDPPAPSTVYIKIKNIPYETFKTKLNQGLVTTDLDQIRYRLEKHIYCCGVCSKHVNGYCVITNRKAEPGWICKSFVPKEEFIYLDSRPDRKDPAEFRYLSETGLEKDYIESAGARERRHGNEGTKALYDEGVTLYRQGRLKLALEAFDSVLEANPLDFAALFHKGNALLKLKRYEEALEVFERASEINQENAGLWTNLGFIFTKLERFRDSLEAFEKSISLNPVQKNAWEGRDAVIARVRLCEERLRESEEALKKNPEDPDTLFKIGKIHLRLGEQEKAIQAFKKALEIKPENAEAWQFRGKVLFKAGSEKEALHAFEKATRLKPDYAEAWFEKGNAFLKLENLKGAENAFKIAARLWDSKGIKSKAESARDKVKRLHSSN | failed
MIRLSNENTIFFMDKENVPIASCQSGDTVIFETKDCFSDQITNEEQALTSIDFNRVNPATGPLYVEGARRGDMLEIEILDIKVGKQGVMTAAPGLGALGESLNSPTTKLFPIEGDDVVYSTGLRLPLQPMIGVIGTAPPGEPINNGTPGPHGGNLDTKDIKPGTTVYLPVEVDGALLALGDLHAAMGDGEILICGVEIAGTVTLKVNVKKERMFPLPALKTDTHFMTIASAETLDAAAVQATKNMATFLANRTALSIEEAGMLLSGAGDLYVSQIVNPLKTARFSLALHYFEKLGVDLCN | not failed
MIRNIVFDLGGVLIHLNREESIRRFKAIGVADIEEMLDPYLQKGLFLDLESGRKSEEEFRTELSRYIGKELTYQQVYDALLGFLEEISAEKFDYIDSLRPDYRLFLLSNTNPYVLDLAMSPRFLPSGRTLDSFFDKVYASCQMGKYKPNEDIFLEMIADSGMKPEETLFIDDGPANVATAERLGFHTYCPDNGENWIPAITRLLREQK | not failed
MIRRLLRMVRGRTGQRLPDGGIQQDEASKIETAGDSDAREQRAADSDTTREMGTDTGTGLSTGRFVDENVRLLLNGLSQPTFVLDAEGEVVAWNEALAELTGATRDEAVGHDHASEMFYPDGRRAKTLADKVLEHPETVHEEYDVELEAPEMGRVADTSTMLDQYGDEKHIYFAATPQYRDGELVGVVETVIDRTEEVERRLAIERLVGTLGSTLESLRSGELDARAELEDEHAAALDDELLDVVDALNAFAEEFQTLSGRVEQQADRLDDAVDRVVEAAAEISDAVGEQNELVDDAVSEMQTFSAQMEEVAATAQDVDEAASDAKETAEHGLETGQDAREAAKEVTDISEELVDDITALQARMDDIESVVEVVSDVADQTNILALNANIEAARADESGEGFAVVADEVKSLADETQSHTDDITDSIEKLREQTDRTVSAAMTSSERVDRADQRIQEMFDAFEDIADAVEAAADGIAEVAQANDDQAASIEEVTATLETVREHSERAETAAEDVESAATSQAESIDALIKRVERLREGTADAADAA | failed
